Data as given in US20220409661A1 (published 2022).

T1: WT-1 (Wilms tumor protein 1) peptide on HLA-A*02:01 (human)
T1 peptide: RMFPNAPYL

B1: TCR #6 (TCR, V domains shown)
Valpha: EDQVTQSPEALRLQEGESSSLNCSYTVSGLRGLFWYRQDPGKGPEFLFTLYSAGEEKEKERLKATLTKKESFLHITAPKPEDSATYLCAVQTMDGNQFYFGTGTSLTVIP
Vbeta: NAGVTQTPKFQVLKTGQSMTLQCAQDMNHEYMSWYRQDPGMGLRLIHYSVGAGITDQGEVPNGYNVSRSTTEDFPLRLLSAAPSQTSVYFCASSYSLWDLQETQYFGPGTRLLVL
B2: TCR #10 (TCR, V domains shown)
Valpha: AQTVTQSQPEMSVQEAETVTLSCTYDTSESNYYLFWYKQPPSRQMILVIRQEAYKQQNATENRFSVNFQKAAKSFSLKISDSQLGDTAMYFCAFNPWENYGQNFVFGPGTRLSVLP
Vbeta: GAVVSQHPSWVICKSGTSVKIECRSLDFQATTMFWYRQFPKQSLMLMATSNEGSKATYEQGVEKDKFLINHASLTLSTLTVTSAHPEDSSFYICSARPHSLTDTQYFGPGTRLTVL

Target: T1, WT-1 (Wilms tumor protein 1) peptide on …
Assay: multimer staining

| binding result | Binder |
| --- | --- |
| recognises | B1 |
| recognises | B2 |
